Measured values reported in patent US20120294865A1 (REGENTS OF THE UNIVERSITY OF MICHIGAN, published 2012).

T1: peptide of SEQ ID NO: 32 (YANNPRVVFNLNTYK) (human)
T1 construct: 15-mer on a peptide microarray (ProImmune)
T1 peptide: YANNPRVVFNLNTYK

T2: peptide of SEQ ID NO: 33 (AIASIPTERYFFNVS) (human)
T2 construct: 15-mer on a peptide microarray (ProImmune)
T2 peptide: AIASIPTERYFFNVS


Assays:
[1] = molecular target: T1, peptide of SEQ ID NO: 32 …; assay: peptide microarray, fluorescent secondary antibody
Protocol: (§1) Epitope mapping was performed by incubating monoclonal antibody (mAb) samples with a peptide microarray, followed by incubation with a fluorescent-labelled secondary antibody. After washing, the microarray was scanned in a high-resolution scanning system. The peptide microarray consisted of a set of 15-mer peptides overlapping by 10 residues taken from the human alpha-2 integrin subunit (Genbank accession number AAM34795.1; amino acid residues 1-1133 were used). Peptide arrays, antibody incubations, scanning and data analysis were generated by ProImmune Inc, 4281 Express Lane, Suite L2378, Sarasota, Fla. 34238.

[2] = molecular target: T2, peptide of SEQ ID NO: 33 …; assay: peptide microarray, fluorescent secondary antibody
Protocol: as §1

binding result [1]	binding result [2]	Binder
binds	binds	Ab 778.17 (antibody, V domains shown, Mouse monoclonal antibody from a hybridoma) VH: QVQLQQPGAELVRPGTSVKLSCKASGYTFASYWMNWVSQRPEQGLEWIGRIDPYDSETHYNQKFKDKAILTVDKSSSTAYIQLNSLTSEDSAVYYCARLGRGPFAYWGQGTLVTVSA VL: DIVMTQTPTSLAVSLGQRATISCRASESVDSYDNSFMYWYQQKPGQPPKLLIYFASNLESGVPARFSGSGSRTDFTLTIDPVEADDAATYYCQQNNEDPYTFGGGTKLEIKR
binds	binds	Ab 770.8 (antibody, V domains shown, Mouse monoclonal antibody from a hybridoma, used as ascites or purified) VH: EVKLEESGTVLARPGASVKMSCKASGYSFTSYWMHWVKQRPGQGLEWIGAFYPGNSEDKYNENFKIKAKLTAVTSVNTVYMELSSLTSEDSAVYYCTRGTTLVAPGFDVWGAGTTVTVSS VL: DIVMTQSPAILSVSPGERVSFSCRASQSIGTSIHWYQQRTNGSPRLLIKYVSESISGIPSRFSGSGSGTDFTLTINSVESEDIADYYCQHSNRWPLTFGAGTKLELKR
